# Assay results taken from patent publication US20210324359A1, “USE OF GRAM-NEGATIVE LYSIN-ANTIMICROBIAL PEPTIDE (AMP) POLYPEPTIDE CONSTRUCTS IN TREATING ENDOCARDITIS” (priority 2020, published 2021).
# B1: GN370: lysin-AMP construct: MIDR, FIRL and NPTH moieties N-terminal to GN202 lysin (SEQ ID NO: 44) (protein)
# chain: MIDRFIRLNPTHGPRRPRRPGRRAPVRTSQRGIDLIKSFEGLRLSAYQDSVGVWTIGYGTTRGVTRYMTITVEQAERMLSNDIQRFEPELDRLAKVPLNQNQWDALMSFVYNLGAANLASSTLLDLLNKGDYQGAADQFPHWVNAGGKRLDGLVKRRAAERALFLEPLS
# What was measured:
# [1] = tested on: Pseudomonas aeruginosa strain CFS-1292 (meropenem resistant); settings: strain CFS-1292; no added cations
# Method: The activity of selected GN lysins and constructs in the presence of divalent cations was evaluated, and the impact of divalent cations at physiological concentrations was examined in the MIC assay format.
# [2] = tested on: P. aeruginosa strain WC-453; test: Time-kill assay in HEPES or CAA with 25% human serum (Tables 7, 8); assay type: cell-based, Pseudomonas aeruginosa
# Method: Exponential phase bacteria were then pelleted and resuspended in 1/5 culture volume of 25 mM HEPES, pH 7.4 before a final adjustment to an optical density corresponding to a McFarland value of 0.5. […] All treatments were incubated at 37° C. with aeration. At time points before the addition of lysin (or buffer control) and at 1 hour and 3 hours intervals thereafter, culture samples were removed for quantitative plating on CAA agar plates.
# P. aeruginosa isolates = test: MIC against a range of isolates in CAA + […] human serum (Table 11); assay type: cell-based, Pseudomonas aeruginosa
# [3] = tested on: Pseudomonas aeruginosa biofilm; test: MBEC in CAA supplemented with […] human serum (Table 14); assay type: cell-based
# Method: Biofilms are then washed and treated with e.g., a 2-fold dilution series of the lysin in TSBg at e.g., 37° C. for 24 hours. After treatment, wells are washed, air-dried at e.g., 37° C. and stained with e.g., 0.05% crystal violet for 10 minutes.
# Materials and methods: MICs were determined by broth microdilution in media supplemented with human serum and pulmonary surfactant ([…]®; Myoderm Clinical Supplies). Minimal biofilm eradicating concentrations (MBECs) were determined using standard methods. […] Fluorescence microscopy was performed after LIVE/DEAD staining (ThermoFisher) and TEM was performed.
# [4] = tested on: outer membrane of P. aeruginosa (CFS 1292); test: N-phenyl-1-napthylamine (NPN) uptake assay, outer membrane destabilization (Table 15); assay type: cell-based, Pseudomonas aeruginosa; settings: NPN fluorescence, buffer = 100, lysin 100 μg/well
# Method: The ability of gram-negative lysins to destabilize the outer membrane of P. aeruginosa was evaluated through the use of an N-phenyl-1-napthylamine (NPN) uptake assay. […] NPN was added to a final concentration of […]. […] Changes in fluorescence were recorded (excitation 1=350 nm; emission 1=420 nm) over two hours.
# P. aeruginosa strains = test: Checkerboard synergy with meropenem in 25% CAA and […] human serum (Table 16); assay type: cell-based, Pseudomonas aeruginosa; settings: for FICI value (Run #1), with meropenem / FICI value (Run #2), with meropenem: 25% CAA and […] human serum
# [5] = tested on: carbapenem-resistant P. aeruginosa strains; test: Resensitization of carbapenem-resistant strains, combinations with imipenem or meropenem (Tables 18-22); assay type: cell-based, Pseudomonas aeruginosa; settings: for FICI: isolate WC-452
# P. aeruginosa PA20 = test: MIC of GN370 and meropenem against the infecting strain; assay type: cell-based, Pseudomonas aeruginosa
molecule,measurement,setting,value
B1,MIC in 25% CAA,[1],4 µg/mL
same,"bactericidal activity (CFU decrease of 3-Log10, 3 hours after the addition of lysin)","[2]; 10 μg/mL, enumerated lysins in CAA/HuS, general statement for HEPES and CAA/HuS",bactericidal activity
same,"CAA/HuS (Log10 CFU/mL), 1 hr","[2]; CAA + 25% human serum, lysin 10 μg/ml, 1 hr, WC-453",4.0 Log10 CFU/mL
same,"CAA/HuS (Log10 CFU/mL), 3 hr","[2]; CAA + 25% human serum, lysin 10 μg/ml, 3 hr, WC-453",<3.7 Log10 CFU/mL
same,activity against P. aeruginosa isolates in human serum or SURVANTA,P. aeruginosa isolates; Tables 11 and 12,active against a variety of P. aeruginosa isolates
same,"MIC, CAA + […] Human Serum",P. aeruginosa isolates; strain CFS 1109 (ATCC 17646),1 µg/mL
same,"MIC, CAA + […] Human Serum",P. aeruginosa isolates; strain CFS 1292,2 µg/mL
same,"MIC, CAA + […] Human Serum",P. aeruginosa isolates; strain CFS1539 (PA1),1 µg/mL
same,"MIC, CAA + […] Human Serum",P. aeruginosa isolates; strain CFS 1540 (PA2),1 µg/mL
same,"MIC, CAA + […] Human Serum",P. aeruginosa isolates; strain CFS 1541 (PA3),1 µg/mL
same,"MIC, CAA + […] Human Serum",P. aeruginosa isolates; strain CFS 1557 (PA19),4 µg/mL
same,"MIC, CAA + […] Human Serum",P. aeruginosa isolates; strain CFS 1558 (PA20),0.5 µg/mL
same,"MIC, CAA + […] Human Serum",P. aeruginosa isolates; strain CFS 1559 (PA21),2 µg/mL
same,"MIC, CAA + […] Human Serum",P. aeruginosa isolates; strain CFS 1560 (PA22),2 µg/mL
same,"MIC, CAA + […] Human Serum",P. aeruginosa isolates; strain CFS 1561 (PA23),2 µg/mL
same,"MIC, CAA + […] Human Serum",P. aeruginosa isolates; strain CFS 1562 (PA24),2 µg/mL
same,"MIC, CAA + […] Human Serum",P. aeruginosa isolates; strain CFS 1596 (PA26),1 µg/mL
same,"MIC, CAA + […] Human Serum",P. aeruginosa isolates; strain CFS 1597 (PA27),0.5 µg/mL
same,"MIC, CAA + […] Human Serum",P. aeruginosa isolates; strain CFS 1669 (PA41),2 µg/mL
same,"MIC, CAA + […] Human Serum",P. aeruginosa isolates; strain CFS 1674 (PA46),2 µg/mL
same,"MIC, CAA + […] Human Serum",P. aeruginosa isolates; strain CFS 1675 (PA47),1 µg/mL
same,"MIC, CAA + […] Human Serum",P. aeruginosa isolates; strain CFS 1766 (ATCC 27853),4 µg/mL
same,MBEC in CAA supplemented with […] human serum,[3],1 µg/mL
same,% RFU,[4]; 5 minutes,205 % RFU
same,% RFU,[4]; 10 minutes,217 % RFU
same,% RFU,[4]; 20 minutes,213 % RFU
same,% RFU,[4]; 40 minutes,198 % RFU
same,% RFU,[4]; 60 minutes,193 % RFU
same,% RFU,[4]; 100 minutes,184 % RFU
same,synergy with meropenem,P. aeruginosa strains; FICI less than or equal to 0.5 = potent synergy,exhibited synergy with meropenem
same,"FICI value (Run #1), with meropenem",P. aeruginosa strains; strain CFS 1292,0.1875
same,"FICI value (Run #2), with meropenem",P. aeruginosa strains; strain CFS 1292,0.219
same,"FICI value (Run #1), with meropenem",P. aeruginosa strains; strain CFS 1557 (PA19),0.1875
same,"FICI value (Run #2), with meropenem",P. aeruginosa strains; strain CFS 1557 (PA19),0.240
same,"FICI value (Run #1), with meropenem",P. aeruginosa strains; strain CFS 1558 (PA20),0.09375
same,"FICI value (Run #2), with meropenem",P. aeruginosa strains; strain CFS 1558 (PA20),0.109
same,"FICI value (Run #2), with meropenem",P. aeruginosa strains; strain CFS 1559 (PA21),0.438
same,"FICI value (Run #2), with meropenem",P. aeruginosa strains; strain CFS 1560 (PA22),0.198
same,"FICI value (Run #2), with meropenem",P. aeruginosa strains; strain CFS 1561 (PA23),0.240
same,"FICI value (Run #2), with meropenem",P. aeruginosa strains; strain CFS 1562 (PA24),0.240
same,"FICI value (Run #2), with meropenem",P. aeruginosa strains; strain CFS 1766 (ATCC 27853),0.156
same,resensitization to carbapenems in synergistic combinations,"[5]; imipenem (IPM) and meropenem (MEM), carbapenem-resistant isolates",reductions of IPM and MEM MICS to below breakpoint values
same,FICI,[5]; lysin + imipenem,0.094
same,FICI,[5]; lysin + meropenem,0.125
same,"Antibiotic MIC / Lysin MIC, Alone",[5]; vs. WC-452 (Table 22),2
same,MIC of P. aeruginosa PA20,P. aeruginosa PA20,2 µg/mL
same,MIC against P. aeruginosa,P. aeruginosa PA20; GN370 value in rabbit serum,2 µg/mL
